Laboratory results as given in publication PMC2447818.

Target: GFP-VIM (lens vimentin fused to green fluorescence protein) (UniProt P08670)
Assay: FRET or BRET; FRET acceptor photobleaching by confocal laser scanning microscopy in living HeLa cells, 48 h after co-transfection; GFP fusion as donor, RFP fusion as acceptor; RFP bleached at 543 nm for 45 s in a region of interest or a whole cell; E=1 – F(GFP-min)/F(GFP-max)

Sequence of RFP-αB (wild-type αB-crystallin fused to red fluorescence protein) (P02511 whole entry, the tested form may be a part): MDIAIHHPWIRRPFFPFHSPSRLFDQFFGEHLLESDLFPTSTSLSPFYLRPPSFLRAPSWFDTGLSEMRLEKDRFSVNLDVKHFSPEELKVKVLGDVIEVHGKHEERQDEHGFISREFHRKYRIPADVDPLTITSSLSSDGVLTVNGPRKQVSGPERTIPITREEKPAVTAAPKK
Sequence of GFP-VIM (lens vimentin fused to green fluorescence protein) (P08670 2-466): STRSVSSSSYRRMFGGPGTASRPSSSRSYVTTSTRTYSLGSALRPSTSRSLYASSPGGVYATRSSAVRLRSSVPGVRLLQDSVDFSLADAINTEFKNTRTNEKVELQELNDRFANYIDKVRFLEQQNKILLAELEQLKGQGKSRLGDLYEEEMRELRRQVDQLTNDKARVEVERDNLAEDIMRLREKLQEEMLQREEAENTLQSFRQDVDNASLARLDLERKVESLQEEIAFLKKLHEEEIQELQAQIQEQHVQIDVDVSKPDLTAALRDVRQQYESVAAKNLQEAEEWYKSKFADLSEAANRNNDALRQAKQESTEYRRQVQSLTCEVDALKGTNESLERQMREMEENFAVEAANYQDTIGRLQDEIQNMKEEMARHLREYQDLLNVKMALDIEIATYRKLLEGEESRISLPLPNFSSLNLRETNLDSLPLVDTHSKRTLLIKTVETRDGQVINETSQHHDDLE

- FRET efficiency (one representative cell): 9.5%
Substance: RFP-αB (wild-type αB-crystallin fused to red fluorescence protein) (from UniProt P02511 1-175) (natural protein)
